Source: publication PMC3727927 (Molecular Biology of the Cell, 2013)

Target: the molecule itself
Assay: light scattering

B1: Bacillus subtilis MreB A277Q K305D double mutant, Strep-tagged (natural protein)
chain: MFGIGARDLGIDLGTANTLVFVKGKGIVVREPSVVALQTDTKSIVAVGNDAKNMIGRTPGNVVALRPMKDGVIADYETTATMMKYYINQAIKNKGMFARKPYVMVCVPSGITAVEERAVIDATRQAGARDAYPIEEPFAAAIGANLPVWEPTGSMVVDIGGGTTEVAIISLGGIVTSQSIRVAGDEMDDAIINYIRKTYNLMIGDRTAEAIKMEIGSAEAPEESDNMEIRGRDLLTGLPKTIEITGKEISNALRDTVSTIVEAVKSTLEKTPPELAQDIMDRGIVLTGGGALLRNLDKVISEETDMPVLIAEDPLDCVAIGTGKALEHIHLFKGKTR
B1: binds.
